Results published in article PMC8230603, “Rad52 Oligomeric N-Terminal Domain Stabilizes Rad51 Nucleoprotein Filaments and Contributes to Their Protection against Srs2”.

Biological target: Rad52-FLAG (Saccharomyces cerevisiae, UniProt P06778 1-471)
Assay: EMSA; 5 mM MgCl2; 10 mM Tris-HCl pH 8, 5 mM MgCl2, 100 mM NaCl, 37 °C, 10 min; 0.27 µM Cy5-DNA (nt per Fig 6 legend); 8% native PAGE
Conditions: protein: recombinant; tags: FLAG; chain copies: 10; label: 5'-Cy5 on strand 1; blunt

Rad52-FLAG, sequence (P06778 whole entry): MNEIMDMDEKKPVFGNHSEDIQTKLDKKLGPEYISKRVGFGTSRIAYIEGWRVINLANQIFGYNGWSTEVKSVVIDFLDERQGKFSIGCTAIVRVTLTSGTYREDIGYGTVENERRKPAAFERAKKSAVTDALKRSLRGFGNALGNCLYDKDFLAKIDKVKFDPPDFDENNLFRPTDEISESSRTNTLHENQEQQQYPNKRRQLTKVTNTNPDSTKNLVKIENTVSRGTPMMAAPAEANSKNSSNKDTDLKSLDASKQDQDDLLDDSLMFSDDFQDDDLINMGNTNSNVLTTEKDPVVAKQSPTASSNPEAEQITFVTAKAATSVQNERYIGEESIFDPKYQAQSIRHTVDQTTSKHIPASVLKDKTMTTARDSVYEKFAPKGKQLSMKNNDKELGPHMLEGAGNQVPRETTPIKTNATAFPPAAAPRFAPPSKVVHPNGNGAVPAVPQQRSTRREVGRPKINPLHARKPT

B1: XV2 dsDNA (dsDNA)
DNA 1: TGGGTGAACCTGCAGGTGGGCAAAGATGTCCTAGCAATGTAATCGTCAAGCTTTATGCCGTT
DNA 2: AACGGCATAAAGCTTGACGATTACATTGCTAGGACATCTTTGCCCACCTGCAGGTTCACCCA
B1: binds.
